According to doi:10.64898/2025.12.30.697032:

Biological target: cauliflower mitoribosome small subunit (cauliflower (B. oleracea))
Experiment: cryo-EM structure; in vitro reconstitution (first reaction): 2.7 ug/uL mtSSU, 500 nM rps3 mRNA (51 nt), 500 nM mtIF3, 2 min at 37 °C, then 10 min on ice; Initiation buffer (20 mM HEPES-KOH pH 7.6, 75 mM KCl, 40 mM MgCl2); gives mtPIC-1 and mtPIC-2

B1: Arabidopsis mitochondrial initiation factor 3 (natural protein)
chain: MAIWRIINRSYLKYASNQLTRNYYTQVCLASSTHVVKQTTKLSSFDIPNSDICTRPSNIFQNLRFLATSAQTRKKEAEVDSDGPRLNEKITGDYVRLVSEEGHCVVSLREALRRAKELQCDLVEVQRDAKPPVCKIVKYSLELYKKAKVGKERAKAKRAEAIRPDIKEIRFTPKIEAKDLKFKSDQALKLMESGYRVKCLAVPDKDKHKELEPEKLLELLFRFTCFIGDALVESWPEADRKGAVVIVRHAKFGPPKKGGVKLMKDIDIKSARVKEESPKPDSSKAGVATVDDQEDIEKSEPRFSVEQAQPVKFQNAYAKREPSSEFSGGRDASRFEPQSPNQHVNPQRPRFSNQAPNQQPTGRFDPQSPNQPPSAPRPQFPNQQPTGRFDPQFPSQPPRPQFPNQAPNQQSTGRFNPQFPNQRPSPPQSRFPDQAPNQQPSGPSPNRHPDRQGPPPRFQNQAPNQQPTGRFEPQPPNPPRAPPRPQTRLPNETSNEQPTAPGRSSGPASGYGIFSTPKTK
Binder B1 has a percent of mtSSU particles accommodating mtIF3 of 70%.
